Drawing on article PMC7272049 (2020), this text covers EC50 for four molecules.

Targets include mPD-L1 G119D mCherry (mouse, UniProt Q9EP73 19-290, G119D); mPD-L1 D49R mCherry (mouse, UniProt Q9EP73 19-290, D49R); mPD-L1 G120D mCherry (mouse, UniProt Q9EP73 19-290, G120D); mPD-L1 Y56A mCherry (mouse, UniProt Q9EP73 19-290, Y56A); mPD-L1 K124A mCherry (mouse, UniProt Q9EP73 19-290, K124A); mPD-L1 R125A mCherry (mouse, UniProt Q9EP73 19-290, R125A); WT mPD-L1 mCherry (mouse, UniProt Q9EP73 19-290); D28R (Mus musculus); mPD-L1 D122A mCherry (mouse, UniProt Q9EP73 19-290, D122A); mPD-L1 Y123R mCherry (mouse, UniProt Q9EP73 19-290, Y123R).

Holding throughout (experiment): FACS
In general terms: In flow cytometry, cells or beads pass a laser one at a time.

mPD-L1 R125A mCherry, sequence (Q9EP73 19-290 R125A): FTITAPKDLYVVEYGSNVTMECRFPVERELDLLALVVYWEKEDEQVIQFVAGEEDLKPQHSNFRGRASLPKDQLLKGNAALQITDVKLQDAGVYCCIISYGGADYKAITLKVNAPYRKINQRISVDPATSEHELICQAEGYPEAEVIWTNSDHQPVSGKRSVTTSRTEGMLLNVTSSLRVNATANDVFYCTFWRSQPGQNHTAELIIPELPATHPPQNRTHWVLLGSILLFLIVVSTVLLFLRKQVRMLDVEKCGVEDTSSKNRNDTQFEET
D28R (Mus musculus), sequence (chain, as listed by the source D28R): as the sequence (Q9EP73 19-290 R125A) above, with D8R, A107R counted along it
mPD-L1 K124A mCherry, sequence (Q9EP73 19-290 K124A): as the sequence (Q9EP73 19-290 R125A) above, with K106A, A107R counted along it
mPD-L1 G120D mCherry, sequence (Q9EP73 19-290 G120D): as the sequence (Q9EP73 19-290 R125A) above, with G102D, A107R counted along it
mPD-L1 G119D mCherry, sequence (Q9EP73 19-290 G119D): as the sequence (Q9EP73 19-290 R125A) above, with G101D, A107R counted along it
WT mPD-L1 mCherry, sequence (Q9EP73 19-290): as the sequence (Q9EP73 19-290 R125A) above, with A107R counted along it
mPD-L1 Y123R mCherry, sequence (Q9EP73 19-290 Y123R): as the sequence (Q9EP73 19-290 R125A) above, with Y105R, A107R counted along it
mPD-L1 D122A mCherry, sequence (Q9EP73 19-290 D122A): as the sequence (Q9EP73 19-290 R125A) above, with D104A, A107R counted along it
mPD-L1 Y56A mCherry, sequence (Q9EP73 19-290 Y56A): as the sequence (Q9EP73 19-290 R125A) above, with Y38A, A107R counted along it
mPD-L1 D49R mCherry, sequence (Q9EP73 19-290 D49R): as the sequence (Q9EP73 19-290 R125A) above, with D31R, A107R counted along it

B1: mPD-1 mIgG2a (Fc fusion)
chain: LEVPNGPWRSLTFYPAWLTVSEGANATFTCSLSNWSEDLMLNWNRLSPSNQTEKQAAFCNGLSQPVQDARFQIIQLPNRHDFHMNILDTRRNDSGIYLCGAISLHPKAKIEESPGAELVVTERILETSTRYPSPSPKPEGRFQGM
In the case of B1, the half-maximal effective concentration (EC50) – broadly, the concentration needed to bring the measured effect to its halfway point – in the assay with mPD-L1 G119D mCherry turned out to be 2 nM; in the assay with mPD-L1 D49R mCherry, 1.8 nM; in the assay with mPD-L1 G120D mCherry it was 2.5 nM; in the assay with mPD-L1 Y56A mCherry, 1.9 nM; with mPD-L1 K124A mCherry it was 42.9 nM; with mPD-L1 R125A mCherry, 38.8 nM. This molecule also had an EC50 in the assay with WT mPD-L1 mCherry of 1.8 nM.

B2: mPD-1 mIgG2a (Fc fusion)
chain: B1 chain
modifications: Cell-surface full-length mPD-L1 with a C-terminal mCherry (left out); limits are not given, so the mature chain 19-290 is used. The paper prints D28R, but residue 28 of Q9EP73 is Tyr. The only nearby Asp is D26, which lies at the PD-1 interface, so D28R is read as D26R. The paper's other PD-L1 numbers match the precursor numbering.
As for B2, a half-maximal effect with D28R (EC50) was put at 2.6 nM.

B3: mB7-1 mIgG2a (Fc fusion)
chain: VDEQLSKSVKDKVLLPCRYNSPHEDESEDRIYWQKHDKVVLSVIAGKLKVWPEYKNRTLYDNTTYSLIILGLVLSDRGTYSCVVQKKERGTYEVKHLALVKLSIKADFSTPNITESGNPSADTKRITCFASGGFPKPRFSWLENGRELPGINTTISQDPESELYTISSQLDFNTTRNHTIKCLIKYGDAHVSEDFTWEKPPEDPPDSKN
For the molecule B3, the EC50 amounted to 54.9 nM with mPD-L1 K124A mCherry, 20.2 nM with mPD-L1 R125A mCherry, 68.2 nM with mPD-L1 D122A mCherry and 7.7 nM in the assay with mPD-L1 Y123R mCherry.

B4: mB7-1 mIgG2a (Fc fusion)
chain: B3 chain
modifications: Cell-surface full-length mPD-L1 with a C-terminal mCherry (left out); limits are not given, so the mature chain 19-290 is used. The paper prints D28R, but residue 28 of Q9EP73 is Tyr. The only nearby Asp is D26, which lies at the PD-1 interface, so D28R is read as D26R. The paper's other PD-L1 numbers match the precursor numbering.
As to B4, the EC50 with D28R was 18.8 nM. This counts as double-digit nanomolar.
